Experimental data from PMC9917220.

Columns and labels:
[1] = biological target: T1, human thrombin (Homo sapiens, UniProt P00734;P00734 328-363;364-622); experiment: ITC; 25 C, binding buffer, 1 mM Mg2+; Binding Buffer: 50 mM Tris-HCl, 100 mM NaCl, 1 mM MgCl2, 1 M DTT (so in the source), pH not stated; ITC and CD at 25 C
[2] = biological target: T1, human thrombin; experiment: CD; 0.5 uM thrombin, 5 uM DNA; no significant spectral change; Binding Buffer: 50 mM Tris-HCl, 100 mM NaCl, 1 mM MgCl2, 1 M DTT (so in the source), pH not stated; ITC and CD at 25 C

Binder	Kd [1]	binding result [2]
AS2-3 (61mer; identical to AS7-36 and AS7-83) (structured_DNA) DNA: TACAGGCAGTAAGGCCGTGTCATCAGGATGGGCACTTTCCTAGGGCAGGTTAGCAACAGGA	3.36 µM	–
TACAGGCAGTAAGGCCGTGTCATCAGGATGGGCACTTTCC (structured_DNA) [40mer AS2-3]	–	no binding
